Reference: publication PMC6437151

Key:
FBXW2 [1] = molecular target: FBXW2 (UniProt Q9UKT8); test: IP with FBXW2 antibody, immunoblot; conditions: reference: wild type; sites S552
FBXW2 [2] = molecular target: FBXW2 (UniProt Q9UKT8); test: co-transfection, HA IP, immunoblot; conditions: reference: wild type; sites S552

binding against the reference (FBXW2 [1]): lost
binding against the reference (FBXW2 [2]): lost
Substance: β-catenin (from UniProt P35222) S552A
